This note sets out measurements from publication doi:10.1101/2021.12.29.474488 (bioRxiv, 2021).

Data set [1] addresses MgtE T336C/L421C mutant lacking the N domain (T. thermophilus) (UniProt Q5SMG8). The experiment in a line: cross-linking.
The data set “crystal structure” deals with the molecule itself. In words: crystal structure.

Broadly, the stoichiometry N is the number of molecules, sites or subunits per partner or assembly. Molecule “MgtE T336C/L421C mutant lacking the N domain (from UniProt Q5SMG8 130-450) (domain or fragment)” displayed a stoichiometry N in data set [1] of 2.

B1: MgtE transmembrane (TM) domain from Thermus thermophilus (domain or fragment, T. thermophilus, UniProt Q5SMG8 268-450, looked up)
chain: VPDLVYSEAGPVALWLARVRWLVILILTGMVTSSILQGFESVLEAVTALAFYVPVLLGTGGNTGNQSATLIIRALATRDLDLRDWRRVFLKEMGVGLLLGLTLSFLLVGKVYWDGHPLLLPVVGVSLVLIVFFANLVGAMLPFLLRRLGVDPALVSNPLVATLSDVTGLLIYLSVARLLLEAV
Consider B1, for which the binding result in the data set “crystal structure” is on record as “binds”.
